{"source": "patent US20260008830A1", "target": "T1, IL-22 receptors R1 and R2 on HEK-Blue IL-22 reporter cells (UniProt Q8N6P7)", "T1 sequence (looked up) 1": "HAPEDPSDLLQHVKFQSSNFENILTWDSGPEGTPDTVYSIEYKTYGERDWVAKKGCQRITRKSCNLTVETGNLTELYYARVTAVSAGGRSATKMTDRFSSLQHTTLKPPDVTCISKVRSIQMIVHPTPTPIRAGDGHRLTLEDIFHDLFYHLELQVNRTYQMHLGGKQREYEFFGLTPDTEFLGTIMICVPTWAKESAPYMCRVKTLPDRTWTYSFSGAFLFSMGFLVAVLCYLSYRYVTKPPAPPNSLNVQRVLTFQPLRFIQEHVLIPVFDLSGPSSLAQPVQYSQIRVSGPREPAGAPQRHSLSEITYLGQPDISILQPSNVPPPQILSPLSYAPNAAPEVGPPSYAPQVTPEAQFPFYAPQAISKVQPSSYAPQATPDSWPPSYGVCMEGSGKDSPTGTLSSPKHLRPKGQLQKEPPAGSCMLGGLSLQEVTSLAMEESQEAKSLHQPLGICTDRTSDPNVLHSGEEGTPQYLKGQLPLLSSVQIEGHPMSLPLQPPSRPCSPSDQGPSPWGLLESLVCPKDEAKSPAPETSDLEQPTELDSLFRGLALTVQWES", "T1 sequence (looked up) 2": "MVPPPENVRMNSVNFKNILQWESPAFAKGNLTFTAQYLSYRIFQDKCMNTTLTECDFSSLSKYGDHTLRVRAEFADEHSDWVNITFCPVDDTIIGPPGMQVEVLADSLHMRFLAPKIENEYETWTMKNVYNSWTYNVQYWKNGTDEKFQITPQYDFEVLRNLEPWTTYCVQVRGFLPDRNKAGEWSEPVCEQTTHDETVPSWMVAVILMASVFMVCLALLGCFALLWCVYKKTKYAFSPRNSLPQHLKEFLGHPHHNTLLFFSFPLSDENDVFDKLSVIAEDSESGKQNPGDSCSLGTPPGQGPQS", "assay": "cell-based or functional assay"}
{"binder": "IL22 WT (monomeric IL22 based on the IL22 crystal, PDB 3dlq, expressed in bacteria) (ligand) ARLDKSNFQQPYITNRTFMLAKEASLADNNTDVRLIGEKLFHGVSMSERCYLMKQVLNFTLEEVLFPQSDRFQPYMQEVVPFLARLSNRLSTCHIEGDDLHIQRNVQKLKDTVKKLGESGEIKAIGELDLLFMSLRNACI", "values": [{"measurement": "Kd (apparent, HEK-Blue IL-22 reporter)", "result": 0.017, "unit": "nM"}]}
